± gives the uncertainty stated by the source.
Assay: amyloid nucleation score (Sup35N fusion, yeast selection) (log enrichment); library NNK2; higher = more nucleation; inactive = no reads after selection
How it was run: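 The nucleation score is a DiMSum log enrichment of output over input reads, centred on the mode score of non-aggregating sequences. Sequences under 100 input reads were excluded, and reads came from Illumina sequencing of plasmid inserts. Psi-negative yeast expressing Sup35N fused to peptides of 20 random codons were induced with 100 μM copper sulfate for 24 hours and grown 7 days at 30°C on medium lacking adenine and uracil. Random libraries had three technical output replicates.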

| Substance | amyloid nucleation score |
| --- | --- |
| LAQPCQE | -0.033 ± 0.55 |
| YSPSVVVDCRSGRDRNLRGY | -0.254 ± 0.55 |
| IISYEVWSPQQGDLNSHHCL | inactive |
| IFNVKRGILVTSVFDNVQVW | inactive |
| CCFVLTVR | 5.174 ± 0.035 |
| RSSSRASALTRYLSELGKKS | 0.694 ± 0.39 |
| SSTFCS | 0.405 ± 0.64 |
| GSKTRFF | inactive |
| VTEIFMLAL | -0.129 ± 1.1 |
| RPGMARVFNAA | 0.673 ± 0.36 |
| SWGLRTWF | 1.06 ± 0.39 |
| CCGFGDEKDN | -0.206 ± 1.1 |
| GNSIVENFLCSRHQCYVM | 8.598 ± 0.046 |
| HQRYSRLLIKKCYTSASVPC | -0.245 ± 0.62 |
| PLLRSKKKSALYPA | -0.021 ± 0.63 |
| IYVGIHNLILMTSTLGVNKR | 6.06 ± 0.041 |
| HGKRFYAECLIVFPIDKRGA | 0.098 ± 1 |
| RLKCSYTGSALLGRSLGNPE | 0.29 ± 0.54 |
| CEFRDQRFPLVCAGYGRYIG | 0.653 ± 0.57 |
| TCLMDGSTCTRFGGPLEPMC | 0.028 ± 0.79 |
| FLTLPVSPSTQFISDRGSAL | 2.64 ± 0.13 |
| RSSLEKIMIGNFNYVRVKLH | 2.28 ± 0.18 |
| SACNARRVPFG | 0.788 ± 0.51 |
| RTVRTAAMLTCGW | 0.855 ± 0.48 |
| SRKLRLVRGFWG | -0.067 ± 0.62 |

| Substance | amyloid nucleation score |
| --- | --- |
| MYEAAGSDREVLRKYEHSSV | -0.22 ± 0.4 |
| NITKTRHFLSLNYYNVYAFS | 5.05 ± 0.056 |
| FPLLNCKRACLKAAVEAHYR | 0.076 ± 0.61 |
| MWISFFCRRYSNIWTGFGYM | -1.09 ± 1 |
| PFGHFQLLINSKTGMRSVMT | -0.463 ± 0.37 |
| NKCQMSCNRRYEDMGYDRCM | 0.038 ± 0.53 |
| SVVRTRTRTVRVMETWISVW | 0.237 ± 1 |
| ICCGVEHWYVIGFNVGSFYF | 7.964 ± 0.039 |
| GHSSFDQTAFSDSAGSLRML | inactive |
| SAHFTIRKELFLKDTRRVV | -0.47 ± 1 |
| VVVLFIEVLNCYLRGKVKCM | -0.802 ± 0.39 |
| PKMRFFPIARSSIRERNVWV | -1.31 ± 0.34 |
| LQYCHRGC | -0.179 ± 0.44 |
| SCTALVKEKMRG | 0.48 ± 0.32 |
| NNFWFKLQIM | 6.18 ± 0.064 |
| LYDTNVKWVFSCYSKACSCK | -0.323 ± 0.79 |
| GMCYGGKFDY | -0.356 ± 0.33 |
| NNSHPRNKLSWIVRLCVKLI | inactive |
| KSVTDSL | 0.878 ± 0.44 |
| SRLISFLRSRQDDSQISLGW | -0.445 ± 0.49 |
| TTLVSSGYKYFCDVFTGVNA | -1.45 ± 0.63 |
| VYVWDELFVNKKANWTDL | 1.29 ± 0.47 |
| DSGFGSW | -0.807 ± 0.74 |
| FPVSVTTISPNIYGQPNTWC | -1.41 ± 0.45 |
| ACNSRHHEFMSSKFYSATQL | -1.3 ± 0.78 |

| Substance | amyloid nucleation score |
| --- | --- |
| VQIKLRQFTNKAFYTESMST | -0.053 ± 0.63 |
| AGILLYHPQNMHDSPLQMTR | 3.71 ± 0.099 |
| DIWKTQ | 0.218 ± 0.8 |
| LVTECNRDGTLDG | -0.582 ± 0.49 |
| FYCLCTTDGICLEDLL | -0.097 ± 1.1 |
| GKFVLFRMMFNLVNYRSVLQ | -0.731 ± 0.25 |
| WMTRIFTINVGNWWGFMHSR | 3.02 ± 0.056 |
| NSGARSTSLVNVWVLYLLDR | 6.414 ± 0.055 |
| TMYYRNRGLVSEPKNYNGNE | -0.246 ± 0.61 |
| IVNTELVLVDKLDSCIVRYN | 3.02 ± 0.17 |
| KLPIRLMTCASNFNLGNCWL | 6.003 ± 0.038 |
| RNSIYMVTYIMVLDRIA | 6.127 ± 0.046 |
| YYNIQLSFVDMVLMYYDESM | 4.443 ± 0.04 |
| LRFKNVWWPYGDYECATIIT | -0.468 ± 0.41 |
| NCSCIFKNCGFNWVFLGRIL | 2.29 ± 0.17 |
| FFMIEMPVKSTFVGWSRSEG | -0.074 ± 0.25 |
| SLDCPGFGRAYV | 1.62 ± 0.16 |
| DIWYLICLSQSSGLFLVGVM | -0.55 ± 0.79 |
| MNKCFFTSRSEG | inactive |
| HQLPVHEPYEYWLQQGSNCP | 0.353 ± 0.56 |
| MWPHRFM | 0.72 ± 0.28 |
| YDVSYYCNCIAVLKSRLREL | 5.203 ± 0.031 |
| RLHPMRSNI | -0.43 ± 0.3 |
| DYYYIPSSIVSTIFKEFSPL | -1.97 ± 0.78 |
| QCLTSRLGSKIVMCKSLDIS | 0.009 ± 0.23 |

| Substance | amyloid nucleation score |
| --- | --- |
| VPLTPLGENTECLSRARDIT | 0.826 ± 0.45 |
| FAFYRSFCWRVTWFSWVGGS | inactive |
| VRTNDKYQEVFPSVYYNLGN | -0.944 ± 1.1 |
| ETHFVTKDLASSLGKLAHPY | 8.848 ± 0.069 |
| QEQDKSRELKCGGKLYVYEG | 1.04 ± 0.68 |
| VYHSGMTLFNFCCSMHLVEL | 9.22 ± 0.041 |
| TDYVRHKRRNYCLL | 1.12 ± 0.43 |
| LRQGCFQTVKLDYRES | -0.032 ± 1.1 |
| RQFLSPNYATECGFQLRVGI | inactive |
| VMRIVMIDMKSESWSTERVS | 0.611 ± 0.57 |
| PCERPFERFLVLNRFSDSST | 0.183 ± 0.62 |
| GCTGGRIK | -0.088 ± 0.49 |
| CIRRESCIRICGGDCVCHRA | 2.97 ± 0.091 |
| MYRVLAICNRTVRKG | -0.562 ± 0.61 |
| VHNVLKRVYSYGFFNKEHIY | inactive |
| SIQLRVK | inactive |
| RRRVDSLIFYIKMRVLFNMF | inactive |
| IPFLAVACLGDQWDD | 0.304 ± 0.18 |
| QGMNPLQSLDVKCYYL | inactive |
| IKVYSTVYQVSCLLRLMLLM | -1.24 ± 0.64 |
| PLVLKCRCLI | -1.32 ± 1.1 |
| FIADYYGGKTHGNLMSALTC | 1.06 ± 0.53 |
| FSVYRETERLGMSFRVRLWM | 5.25 ± 0.073 |
| GRWSRF | 0.446 ± 0.64 |
| RTYEMVIKFSGSLVRAFRVL | -0.068 ± 0.79 |

| Substance | amyloid nucleation score |
| --- | --- |
| PAYLDPCTSFSVILAMVLLW | 0.697 ± 0.55 |
| RVLRSETYDSFSL | -0.163 ± 0.32 |
| ICFGGTLSWSCVVAILNLSN | 5.616 ± 0.027 |
| YLLWSTVSAAFSDCRGLKYG | inactive |
| WGAVMACE | 0.756 ± 0.49 |
| RCRFPVVIKQRDLVKEVMV | -0.222 ± 0.46 |
| MRYYWMWHKVVM | 0.069 ± 0.29 |
| LLWWMCQYEIFWDKMLYLES | 0.074 ± 1 |
| DQESRNSVFSGKGGRRDVSS | -0.134 ± 0.37 |
| HACSMSIFEFRMCKKWSLLV | -0.848 ± 0.38 |
| VVANINEVLINPRCSAGFHD | 0.683 ± 0.74 |
| YYRYPYTLKCPGGLQERQHL | -0.028 ± 0.76 |
| IDLMKLCFLLYSIGFFLPTH | inactive |
| CLDFYFIVGNFNQHLVRCVL | 1.79 ± 0.16 |
| RVGCLWFRLYPLYSGFMRSR | -1.08 ± 1 |
| TCLRSIVVVFLALGLDSFFW | -0.177 ± 0.3 |
| TVMTFEYSEHVFRDMDT | -0.501 ± 1 |
| WHIFRNYAFIRVSM | 0.036 ± 0.46 |
| YLPVLEVVPTNGVPHDRFWS | 1.08 ± 0.29 |
| SLGTFVRHTEWSSKNEAFPV | inactive |
| DGHVELCISAKDYD | -0.249 ± 0.53 |
| SHGEKSVDDEGSGIGERWQC | 1.27 ± 0.33 |
| YFGTLSLLKHEVA | -0.289 ± 0.3 |
| SLTTLTAVHSCFRLNAWLYF | 0.477 ± 0.29 |
| DYYNRVISASVYSLGGCC | 2.82 ± 0.075 |

| Substance | amyloid nucleation score |
| --- | --- |
| LLFTLGNGGFSLRYKK | -0.265 ± 0.23 |
| RPNAVVFLTDNNVRRSDCWV | -0.639 ± 0.28 |
| KAFFFPQFCCIYGLGM | 8.903 ± 0.035 |
| YSVTLGGWIREQSLQLSTSS | 0.768 ± 0.46 |
| RFCWC | 7.365 ± 0.042 |
| KILSYASLSAGSFLVQ | -0.531 ± 1.1 |
| KCILDRVRGTGLGIMKLKRG | 0.306 ± 0.65 |
| IFSEGSTSSGSFGTKL | -1.6 ± 0.61 |
| PAIHVVDTRVGWRHSMSGYS | 1.72 ± 0.15 |
| PHLASPYHHPCNPQFLFPYL | 0.016 ± 1.1 |
| YWVLQNYHLYCLYKSKSRNW | -0.403 ± 0.4 |
| FIDFGVVVSWVL | 0.985 ± 0.3 |
| AYHAMVCYINLFSDVYLHGY | 4.98 ± 0.089 |
| NWCWYHANRLGCFGASCHVV | 4.52 ± 0.071 |
| MNLSGVQVAMFSSQPVALTG | 0.097 ± 0.63 |
| DIDAIYTFRACGDMPSHFRR | -0.172 ± 0.35 |
| TPVQDNYSYFIFKPIDESIA | 2.19 ± 0.12 |
| CTIRLECLLA | -0.428 ± 0.46 |
| FLGCYGLNCVSWKGMMSTPL | 4.31 ± 0.072 |
| ACETCPAAEIYLICGTWKSR | 9.36 ± 0.034 |
| YWVFMNSRLVAIGPANALVV | -0.69 ± 1.1 |
| IPCTTSCVVQFCVTYWLDN | 6.419 ± 0.029 |
| IVSVYATAIGGVRFRECCIG | -0.09 ± 0.34 |
| PSWCS | 0.33 ± 0.17 |
| RSALVGGRHNVVNWVRGSKM | 0.079 ± 0.55 |

| Substance | amyloid nucleation score |
| --- | --- |
| FLNHYWLYFQP | 5.353 ± 0.044 |
| VSDLLPVSDGSFTNPIVMLV | 0.323 ± 0.26 |
| LEPGAFRSIVFRIND | 0.961 ± 0.48 |
| LCLTR | -0.307 ± 0.63 |
| TRVDDLIR | -0.191 ± 0.32 |
| LLTNAVRGLG | 0.302 ± 0.56 |
| NKKIIYDQIFIRMGSFQLN | inactive |
| YGQKVMPESMKQSFNFMTEI | -0.573 ± 0.63 |
| GTLWLGDAGRAEN | 0.589 ± 0.39 |
| LHNMNWPLFVLVACLVDIPT | -0.724 ± 0.42 |
| FFYFTMWNKHFEFVYNSSPC | -0.613 ± 0.64 |
| TPDAGMWNYECYIVTVW | -0.615 ± 0.49 |
| FYCIARERLRMVNFT | -0.845 ± 0.62 |
| MIQHEKQMWWADNSYP | 0.483 ± 0.24 |
| WSNSYHRLILWRQCIFGLLV | 2.76 ± 0.081 |
| QHAFRVHFTVRRVSSFFVR | 5.96 ± 0.086 |
| FLGKDWYVVTSVVKYTNAFF | 0.104 ± 0.45 |
| PDRSTFRVYSLHWTFCEHRC | 3.74 ± 0.1 |
| SLGNQIQVCISLPSMPVTPW | 0.512 ± 0.66 |
| KHLRFASEVNFSARVPPPWL | -0.229 ± 0.33 |

From the supplement of paper PMC12042874
